Experimental data published in IntAct's records for PubMed 20818336.

B1: Importin subunit alpha-3 (Homo sapiens), O00629 (parent)
chain: MADNEKLDNQRLKNFKNKGRDLETMRRQRNEVVVELRKNKRDEHLLKRRNVPHEDICEDSDIDGDYRVQNTSLEAIVQNASSDNQGIQLSAVQAARKLLSSDRNPPIDDLIKSGILPILVHCLERDDNPSLQFEAAWALTNIASGTSEQTQAVVQSNAVPLFLRLLHSPHQNVCEQAVWALGNIIGDGPQCRDYVISLGVVKPLLSFISPSIPITFLRNVTWVMVNLCRHKDPPPPMETIQEILPALCVLIHHTDVNILVDTVWALSYLTDAGNEQIQMVIDSGIVPHLVPLLSHQEVKVQTAALRAVGNIVTGTDEQTQVVLNCDALSHFPALLTHPKEKINKEAVWFLSNITAGNQQQVQAVIDANLVPMIIHLLDKGDFGTQKEAAWAISNLTISGRKDQVAYLIQQNVIPPFCNLLTVKDAQVVQVVLDGLSNILKMAEDEAETIGNLIEECGGLEKIEQLQNHENEDIYKLAYEIIDQFFSSDDIDEDPSLVPEAIQGGTFGFNSSANVPTEGFQF
partner: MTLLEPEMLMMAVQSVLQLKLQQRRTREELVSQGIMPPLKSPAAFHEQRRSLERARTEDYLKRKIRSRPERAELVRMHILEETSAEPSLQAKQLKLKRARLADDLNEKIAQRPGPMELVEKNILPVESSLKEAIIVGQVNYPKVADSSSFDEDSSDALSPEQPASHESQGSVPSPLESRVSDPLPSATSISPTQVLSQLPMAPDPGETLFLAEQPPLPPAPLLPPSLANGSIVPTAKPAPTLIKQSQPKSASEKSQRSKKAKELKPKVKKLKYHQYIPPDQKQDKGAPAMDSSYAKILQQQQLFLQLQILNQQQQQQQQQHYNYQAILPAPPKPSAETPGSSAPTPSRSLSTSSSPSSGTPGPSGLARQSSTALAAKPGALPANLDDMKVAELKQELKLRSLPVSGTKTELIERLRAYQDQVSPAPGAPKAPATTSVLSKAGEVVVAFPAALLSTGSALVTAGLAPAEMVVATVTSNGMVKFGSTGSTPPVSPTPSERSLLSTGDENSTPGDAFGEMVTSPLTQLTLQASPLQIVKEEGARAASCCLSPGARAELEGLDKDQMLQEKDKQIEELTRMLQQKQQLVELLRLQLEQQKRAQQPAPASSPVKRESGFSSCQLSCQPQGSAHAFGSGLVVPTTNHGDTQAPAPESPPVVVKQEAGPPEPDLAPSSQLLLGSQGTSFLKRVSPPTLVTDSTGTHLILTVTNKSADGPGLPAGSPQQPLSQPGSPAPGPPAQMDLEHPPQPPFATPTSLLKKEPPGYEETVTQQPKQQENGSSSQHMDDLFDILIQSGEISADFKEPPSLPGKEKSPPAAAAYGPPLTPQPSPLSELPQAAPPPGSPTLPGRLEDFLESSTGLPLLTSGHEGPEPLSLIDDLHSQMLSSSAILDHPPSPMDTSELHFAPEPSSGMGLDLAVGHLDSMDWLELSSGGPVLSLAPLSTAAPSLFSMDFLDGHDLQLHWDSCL
B2: Myocardin-related transcription factor A (Mus musculus), Q8K4J6 (parent)
chain: B1 partner

Variants of: B1
Settings: with mrtfa_mouse Mrtfa

effect of a mutation on the interaction	Variant
decreasing interaction strength	W179A;N183A;W390A;N394A
decreasing interaction strength	W390A;N394A
decreasing interaction strength	W179A;N183A

Variants of: B2
Settings: with ima3_human KPNA4, O00629

effect of a mutation on the interaction	Variant
decreasing interaction strength	K95A;L96A;K97A
decreasing interaction strength	K62A;R63A;K64A
disrupting interaction strength	K62A;R63A;K64A;K95A;L96A;K97A

Variants of: B2
Settings: with imb1_human KPNB1, Q14974
Chain of imb1_human KPNB1, Q14974 (Q14974 whole entry): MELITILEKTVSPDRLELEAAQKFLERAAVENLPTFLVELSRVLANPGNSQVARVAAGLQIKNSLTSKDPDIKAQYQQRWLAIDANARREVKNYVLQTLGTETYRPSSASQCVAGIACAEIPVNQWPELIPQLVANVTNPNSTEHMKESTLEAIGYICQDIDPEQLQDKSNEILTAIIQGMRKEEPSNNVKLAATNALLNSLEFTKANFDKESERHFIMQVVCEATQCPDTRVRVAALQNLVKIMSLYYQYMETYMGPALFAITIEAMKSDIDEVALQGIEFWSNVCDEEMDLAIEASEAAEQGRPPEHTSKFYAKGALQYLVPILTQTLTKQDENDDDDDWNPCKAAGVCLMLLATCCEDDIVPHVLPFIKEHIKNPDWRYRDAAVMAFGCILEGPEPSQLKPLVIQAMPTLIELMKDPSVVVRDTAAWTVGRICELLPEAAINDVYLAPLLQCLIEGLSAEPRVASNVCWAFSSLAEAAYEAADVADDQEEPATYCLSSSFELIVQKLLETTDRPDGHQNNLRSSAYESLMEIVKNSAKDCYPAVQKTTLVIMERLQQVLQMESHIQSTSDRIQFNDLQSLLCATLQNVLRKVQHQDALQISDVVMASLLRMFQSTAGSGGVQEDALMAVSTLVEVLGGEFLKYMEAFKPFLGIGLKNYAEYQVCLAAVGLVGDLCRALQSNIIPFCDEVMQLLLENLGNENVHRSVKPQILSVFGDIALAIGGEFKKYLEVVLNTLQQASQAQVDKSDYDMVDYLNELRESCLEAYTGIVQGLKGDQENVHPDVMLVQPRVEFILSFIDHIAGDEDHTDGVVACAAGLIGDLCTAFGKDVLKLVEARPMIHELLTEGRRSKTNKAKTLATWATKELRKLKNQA

effect of a mutation on the interaction	Variant
disrupting interaction strength	K95A;L96A;K97A
decreasing interaction strength	K62A;R63A;K64A
